Experimental data: the supplement of paper PMC10065799, “High-throughput profiling of sequence recognition by tyrosine kinases and SH2 domains using bacterial peptide display” (eLife, 2023)

Key:
Grb2 SH2 = Grb2 SH2 (UniProt P62993); assay: SH2 binding enrichment of the phosphorylated peptide, bacterial display (enrichment ratio); higher = better substrate or ligand; peptides without Tyr show the background
c-Src SH2 = assay: as above
SHP2-C SH2 = assay: as above
Hck = Hck (UniProt P08631); assay: phosphorylation enrichment, bacterial display (enrichment ratio); higher = better substrate or ligand; peptides without Tyr show the background
EPHB2 = EPHB2 (UniProt P29323); assay: as above
Jak2 = Jak2 (UniProt O60674); assay: as above
Fer (mouse) = assay: as above
FGFR3 = FGFR3 (UniProt P22607); assay: as above
AncSZ = assay: as above
FGFR1 = FGFR1 (UniProt P11362); assay: as above
c-Src = assay: as above
MERTK = MERTK (UniProt Q12866); assay: as above
EPHB1 = EPHB1 (UniProt P54762); assay: as above
Fyn = Fyn (UniProt P06241); assay: as above
Fes = Fes (UniProt P07332); assay: as above
c-Abl (mouse) = assay: as above
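Throughout, for SH2 binding enrichment of the phosphorylated peptide, bacterial display: peptide library displayed on the E. coli surface as eCPX fusions, selected cells deep-sequenced, score is each peptide's frequency after selection divided by its frequency in the input.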
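Throughout, for phosphorylation enrichment, bacterial display: 11-residue human phosphosite peptides and single-mutation variants displayed on the E. coli surface, counted by deep sequencing, each peptide's frequency after selection divided by its frequency in the unselected input library; frequency after pTyr selection over input frequency; kinase dosed for 20-30% of maximal phosphorylation in three min.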

Sequence of MERTK (Q12866 whole entry, looked up): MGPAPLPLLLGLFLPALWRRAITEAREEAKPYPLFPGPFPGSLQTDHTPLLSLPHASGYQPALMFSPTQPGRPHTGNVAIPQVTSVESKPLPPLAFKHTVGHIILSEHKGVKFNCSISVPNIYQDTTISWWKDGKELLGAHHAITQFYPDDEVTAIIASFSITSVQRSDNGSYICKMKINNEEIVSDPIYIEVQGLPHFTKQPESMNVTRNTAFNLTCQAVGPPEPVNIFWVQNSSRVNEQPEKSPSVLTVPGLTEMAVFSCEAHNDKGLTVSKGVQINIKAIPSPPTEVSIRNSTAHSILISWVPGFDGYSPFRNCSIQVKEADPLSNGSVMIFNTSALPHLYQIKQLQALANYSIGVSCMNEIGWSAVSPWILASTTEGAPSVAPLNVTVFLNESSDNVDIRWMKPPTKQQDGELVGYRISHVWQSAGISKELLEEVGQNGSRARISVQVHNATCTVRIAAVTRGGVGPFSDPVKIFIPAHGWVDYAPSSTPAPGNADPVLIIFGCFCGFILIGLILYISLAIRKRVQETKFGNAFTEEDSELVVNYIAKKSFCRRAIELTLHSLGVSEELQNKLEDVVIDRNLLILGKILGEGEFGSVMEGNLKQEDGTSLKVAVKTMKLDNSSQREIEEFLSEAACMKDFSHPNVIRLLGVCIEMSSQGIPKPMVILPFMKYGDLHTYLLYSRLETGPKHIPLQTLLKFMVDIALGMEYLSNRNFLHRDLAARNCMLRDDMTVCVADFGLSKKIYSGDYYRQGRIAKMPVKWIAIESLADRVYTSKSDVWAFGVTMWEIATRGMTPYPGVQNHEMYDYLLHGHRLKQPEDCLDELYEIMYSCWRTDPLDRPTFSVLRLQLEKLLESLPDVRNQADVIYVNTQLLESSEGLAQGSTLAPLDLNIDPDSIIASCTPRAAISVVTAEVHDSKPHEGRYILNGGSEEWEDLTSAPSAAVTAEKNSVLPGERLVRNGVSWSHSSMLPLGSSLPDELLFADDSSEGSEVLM
Sequence of Fes (P07332 whole entry, looked up): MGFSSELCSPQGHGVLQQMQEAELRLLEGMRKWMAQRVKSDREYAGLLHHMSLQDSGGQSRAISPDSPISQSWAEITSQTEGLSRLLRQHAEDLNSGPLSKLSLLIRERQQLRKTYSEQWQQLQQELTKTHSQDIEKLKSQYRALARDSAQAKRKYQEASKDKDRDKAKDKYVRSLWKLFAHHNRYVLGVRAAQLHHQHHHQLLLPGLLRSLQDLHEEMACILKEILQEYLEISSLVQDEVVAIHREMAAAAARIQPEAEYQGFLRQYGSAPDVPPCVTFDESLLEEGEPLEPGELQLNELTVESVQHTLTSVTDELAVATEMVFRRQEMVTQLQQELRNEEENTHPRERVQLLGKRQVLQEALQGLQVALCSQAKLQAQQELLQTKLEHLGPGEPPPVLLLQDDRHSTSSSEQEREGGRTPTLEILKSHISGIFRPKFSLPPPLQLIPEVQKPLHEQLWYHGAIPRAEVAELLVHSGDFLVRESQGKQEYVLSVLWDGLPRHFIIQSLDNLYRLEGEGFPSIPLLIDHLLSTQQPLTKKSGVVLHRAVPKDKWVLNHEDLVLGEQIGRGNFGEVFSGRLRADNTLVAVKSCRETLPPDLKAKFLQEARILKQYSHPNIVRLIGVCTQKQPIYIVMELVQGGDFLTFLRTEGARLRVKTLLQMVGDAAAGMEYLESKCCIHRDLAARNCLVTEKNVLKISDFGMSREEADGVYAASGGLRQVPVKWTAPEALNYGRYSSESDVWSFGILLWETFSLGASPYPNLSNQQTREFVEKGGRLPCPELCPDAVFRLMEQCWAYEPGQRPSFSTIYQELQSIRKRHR
Sequence of FGFR1 (P11362 whole entry, looked up): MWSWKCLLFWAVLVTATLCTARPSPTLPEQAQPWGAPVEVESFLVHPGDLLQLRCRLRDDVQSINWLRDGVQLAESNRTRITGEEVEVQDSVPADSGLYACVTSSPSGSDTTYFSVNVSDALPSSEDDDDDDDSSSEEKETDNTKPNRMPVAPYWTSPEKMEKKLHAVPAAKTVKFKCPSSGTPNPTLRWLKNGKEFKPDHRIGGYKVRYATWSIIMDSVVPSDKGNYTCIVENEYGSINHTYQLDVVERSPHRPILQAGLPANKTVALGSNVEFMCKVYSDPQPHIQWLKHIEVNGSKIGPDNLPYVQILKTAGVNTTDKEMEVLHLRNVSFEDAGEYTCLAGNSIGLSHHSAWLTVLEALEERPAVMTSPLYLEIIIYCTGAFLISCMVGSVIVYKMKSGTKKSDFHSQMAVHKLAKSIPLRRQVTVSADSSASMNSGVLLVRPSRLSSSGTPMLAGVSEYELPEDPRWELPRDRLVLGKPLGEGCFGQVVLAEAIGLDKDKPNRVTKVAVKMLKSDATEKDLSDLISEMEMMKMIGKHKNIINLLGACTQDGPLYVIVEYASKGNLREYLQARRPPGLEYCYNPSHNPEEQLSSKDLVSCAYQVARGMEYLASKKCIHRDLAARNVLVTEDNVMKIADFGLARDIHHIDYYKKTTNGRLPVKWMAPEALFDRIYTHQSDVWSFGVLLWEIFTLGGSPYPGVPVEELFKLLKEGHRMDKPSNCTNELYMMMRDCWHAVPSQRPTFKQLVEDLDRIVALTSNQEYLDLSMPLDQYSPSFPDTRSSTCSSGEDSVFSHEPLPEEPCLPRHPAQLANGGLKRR
Sequence of Hck (P08631 whole entry, looked up): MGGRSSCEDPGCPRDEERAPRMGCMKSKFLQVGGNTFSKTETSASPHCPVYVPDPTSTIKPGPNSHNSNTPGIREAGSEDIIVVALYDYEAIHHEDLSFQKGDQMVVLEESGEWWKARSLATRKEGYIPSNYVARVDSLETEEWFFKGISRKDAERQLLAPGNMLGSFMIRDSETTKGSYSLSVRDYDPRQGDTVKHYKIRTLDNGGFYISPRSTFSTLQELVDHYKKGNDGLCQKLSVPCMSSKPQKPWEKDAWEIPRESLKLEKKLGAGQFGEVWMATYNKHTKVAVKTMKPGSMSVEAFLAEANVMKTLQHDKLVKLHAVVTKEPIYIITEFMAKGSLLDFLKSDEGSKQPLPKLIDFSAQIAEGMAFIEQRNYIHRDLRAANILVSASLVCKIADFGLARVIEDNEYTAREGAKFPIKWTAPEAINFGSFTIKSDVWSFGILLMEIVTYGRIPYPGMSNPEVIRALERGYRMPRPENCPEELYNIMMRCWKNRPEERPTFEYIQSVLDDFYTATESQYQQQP
Sequence of EPHB2 (P29323 whole entry, looked up): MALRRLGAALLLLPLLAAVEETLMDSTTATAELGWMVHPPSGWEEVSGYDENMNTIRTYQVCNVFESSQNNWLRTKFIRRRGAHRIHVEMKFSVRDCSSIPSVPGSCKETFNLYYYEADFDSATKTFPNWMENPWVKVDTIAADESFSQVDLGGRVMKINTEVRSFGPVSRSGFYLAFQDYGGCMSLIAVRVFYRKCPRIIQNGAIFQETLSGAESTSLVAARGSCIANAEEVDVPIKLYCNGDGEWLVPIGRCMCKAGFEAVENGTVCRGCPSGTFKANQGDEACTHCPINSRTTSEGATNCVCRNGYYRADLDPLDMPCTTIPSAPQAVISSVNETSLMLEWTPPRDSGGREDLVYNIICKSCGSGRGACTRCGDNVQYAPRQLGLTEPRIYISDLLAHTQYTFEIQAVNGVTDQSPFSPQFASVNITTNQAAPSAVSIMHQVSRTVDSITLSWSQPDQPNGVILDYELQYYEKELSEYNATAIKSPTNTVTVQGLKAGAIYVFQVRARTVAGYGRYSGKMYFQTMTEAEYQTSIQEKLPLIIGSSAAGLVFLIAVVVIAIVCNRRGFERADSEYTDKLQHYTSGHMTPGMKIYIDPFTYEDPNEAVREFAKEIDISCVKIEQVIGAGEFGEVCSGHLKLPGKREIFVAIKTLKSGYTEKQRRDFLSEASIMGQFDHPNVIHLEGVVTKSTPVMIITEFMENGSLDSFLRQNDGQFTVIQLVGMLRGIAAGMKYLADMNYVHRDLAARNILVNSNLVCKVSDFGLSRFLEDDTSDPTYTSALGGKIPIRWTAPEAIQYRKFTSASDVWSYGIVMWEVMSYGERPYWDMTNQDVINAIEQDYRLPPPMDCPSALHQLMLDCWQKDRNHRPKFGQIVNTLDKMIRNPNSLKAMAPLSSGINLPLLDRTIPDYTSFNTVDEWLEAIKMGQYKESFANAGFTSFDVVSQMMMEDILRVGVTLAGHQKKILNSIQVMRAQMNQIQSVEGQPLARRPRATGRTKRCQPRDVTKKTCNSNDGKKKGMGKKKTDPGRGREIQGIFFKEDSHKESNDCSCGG
Sequence of FGFR3 (P22607 whole entry, looked up): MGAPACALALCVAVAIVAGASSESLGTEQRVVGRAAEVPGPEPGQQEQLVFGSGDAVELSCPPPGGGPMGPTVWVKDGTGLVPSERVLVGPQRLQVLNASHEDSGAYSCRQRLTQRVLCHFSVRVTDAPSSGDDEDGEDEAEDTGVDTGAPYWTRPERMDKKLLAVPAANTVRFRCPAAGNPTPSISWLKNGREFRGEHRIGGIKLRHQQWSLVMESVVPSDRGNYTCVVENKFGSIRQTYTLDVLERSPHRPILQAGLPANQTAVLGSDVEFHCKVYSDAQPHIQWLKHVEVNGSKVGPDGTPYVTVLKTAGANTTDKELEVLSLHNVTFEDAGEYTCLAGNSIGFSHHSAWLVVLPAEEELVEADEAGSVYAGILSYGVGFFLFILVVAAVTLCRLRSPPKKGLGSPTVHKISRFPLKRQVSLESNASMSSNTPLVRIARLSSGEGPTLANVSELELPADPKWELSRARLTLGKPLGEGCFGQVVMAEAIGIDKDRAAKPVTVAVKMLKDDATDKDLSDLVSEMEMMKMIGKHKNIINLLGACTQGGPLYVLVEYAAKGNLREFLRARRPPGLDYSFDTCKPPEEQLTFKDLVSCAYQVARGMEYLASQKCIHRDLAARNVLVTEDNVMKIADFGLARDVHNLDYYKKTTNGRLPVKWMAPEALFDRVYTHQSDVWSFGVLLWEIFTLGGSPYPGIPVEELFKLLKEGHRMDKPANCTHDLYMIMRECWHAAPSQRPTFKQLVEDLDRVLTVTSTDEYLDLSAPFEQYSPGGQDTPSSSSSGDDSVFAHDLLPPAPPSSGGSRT

Row | Sequence | SH2 binding enrichment (Grb2 SH2) | SH2 binding enrichment (c-Src SH2) | SH2 binding enrichment (SHP2-C SH2) | phosphorylation enrichment (Hck) | phosphorylation enrichment (EPHB2) | phosphorylation enrichment (Jak2) | phosphorylation enrichment (Fer (mouse)) | phosphorylation enrichment (FGFR3) | phosphorylation enrichment (AncSZ) | phosphorylation enrichment (FGFR1) | phosphorylation enrichment (c-Src) | phosphorylation enrichment (MERTK) | phosphorylation enrichment (EPHB1) | phosphorylation enrichment (Fyn) | phosphorylation enrichment (Fes) | phosphorylation enrichment (c-Abl (mouse))
1 | ELAKFYKLHHI [AK7_Y391_N389K_YF] | 0.646 | 0.414 | 0.747 | 0.501 | 0.452 | 0.645 | 0.462 | 0.531 | 0.65 | 0.453 | 0.505 | 0.536 | 0.547 | 0.566 | 0.762 | 0.621
2 | ENFDDYMKDVG [FABP4_Y20_E23D] | 0.832 | 0.428 | 0.729 | 0.554 | 0.663 | 1.24 | 0.443 | 0.764 | 1.17 | 0.546 | 0.43 | 0.52 | 0.635 | 0.564 | 1.12 | 1.13
3 | ENGPYYASYPP [GDAP2_Y488_T489A] | 0.729 | 0.632 | 0.773 | 3.82 | 4.76 | 0.662 | 1.29 | 2.01 | 1.09 | 2.69 | 5.28 | 6.92 | 1.64 | 6.13 | 0.735 | 3.72
4 | ENPAKYDDIKK [GAPDH_Y255_K251N] | 0.702 | 1.39 | 0.888 | 0.412 | 0.582 | 0.829 | 0.453 | 0.69 | 0.915 | 0.519 | 0.485 | 0.437 | 0.608 | 0.506 | 1.04 | 0.579
5 | EPDSLYGCGRG [ATM_Y2019_G2023R] | 0.93 | 0.559 | 0.886 | 4.04 | 0.45 | 0.858 | 0.574 | 0.576 | 0.933 | 0.399 | 2.52 | 0.419 | 0.534 | 2.05 | 0.926 | 0.885
6 | EQFELYCEMGS [CBL_Y371_YF] | 0.934 | 0.46 | 0.638 | 2.27 | 2.66 | 1.39 | 1 | 1.54 | 1.95 | 1.26 | 1.49 | 1.58 | 3.34 | 1.43 | 1.68 | 1.02
7 | EREFKYGAHNF [OAT_Y50_YF] | 0.893 | 0.399 | 0.785 | 0.386 | 0.375 | 0.483 | 0.36 | 0.482 | 0.516 | 0.368 | 0.388 | 0.359 | 0.392 | 0.442 | 0.608 | 0.401
8 | ERPIRYLNHQL [CEP152_Y268_Q265P] | 1.18 | 0.488 | 0.627 | 0.393 | 0.409 | 0.476 | 0.417 | 0.424 | 0.504 | 0.383 | 0.46 | 0.497 | 0.421 | 0.457 | 0.591 | 0.552
9 | ESMLRYEVFGG [STOX1_Y607_YF] | 0.76 | 3.51 | 0.58 | 0.7 | 0.471 | 1.09 | 0.386 | 0.641 | 1.12 | 0.415 | 1.04 | 1.41 | 0.631 | 0.592 | 0.993 | 0.956
10 | ESMNIYLQTSP [NAT1_Y208_T207I] | 0.829 | 0.441 | 0.455 | 1.05 | 0.697 | 1.17 | 0.635 | 0.87 | 1.21 | 0.674 | 1.06 | 0.618 | 0.752 | 0.847 | 1.05 | 0.812
11 | ETMNKYDLSGR [MYEF2_Y164] | 0.912 | 0.44 | 0.639 | 0.448 | 0.391 | 0.731 | 0.422 | 0.498 | 0.667 | 0.421 | 0.398 | 0.633 | 0.383 | 0.434 | 0.696 | 0.507
12 | EVESPYEVHDF [GIGYF2_Y1168_YF] | 0.785 | 0.486 | 0.832 | 1.44 | 0.922 | 1.23 | 12.3 | 0.81 | 1.93 | 0.593 | 5.45 | 0.974 | 0.837 | 5.32 | 1.3 | 0.825
13 | EVKAQYEDIAQ [KRT1_Y358] | 1.15 | 11.6 | 0.64 | 0.69 | 0.539 | 1.06 | 0.761 | 0.748 | 1.22 | 0.593 | 0.516 | 0.435 | 0.546 | 0.556 | 1.26 | 0.774
14 | FAKSVYWENTL [NUP107_Y296_YF] | 1.08 | 1.15 | 0.887 | 0.857 | 0.531 | 0.987 | 0.418 | 0.752 | 0.899 | 0.506 | 0.802 | 0.588 | 0.554 | 0.768 | 1.32 | 0.638
15 | FASTGYVIAIQ [GRIN2B_Y762_G763V] | 0.94 | 0.742 | 1.07 | 0.418 | 0.587 | 0.941 | 0.543 | 0.724 | 1.32 | 0.484 | 0.4 | 0.393 | 0.618 | 0.474 | 0.983 | 0.784
16 | FDDDDYDTDFV [BLM_Y296] | 0.803 | 0.555 | 0.702 | 0.538 | 0.549 | 0.958 | 0.531 | 0.78 | 1.26 | 0.586 | 0.494 | 0.509 | 0.662 | 0.563 | 1.14 | 0.767
17 | FDNSVYQKTTE [LDLR_Y828_P826S] | 0.808 | 0.768 | 0.559 | 0.668 | 0.488 | 0.673 | 0.374 | 0.641 | 0.924 | 0.51 | 0.657 | 0.432 | 0.487 | 0.515 | 0.913 | 0.701
18 | FEGHSYSACTT [MMP9_Y241_R239H] | 0.869 | 2.25 | 0.642 | 0.486 | 0.524 | 1.03 | 0.644 | 0.656 | 0.95 | 0.533 | 0.59 | 0.562 | 0.617 | 0.512 | 1.1 | 1.34
19 | FESPRYLQVHI [FANCA_Y488] | 0.912 | 0.648 | 0.781 | 0.564 | 0.461 | 0.867 | 0.676 | 0.61 | 0.928 | 0.534 | 0.411 | 0.495 | 0.782 | 0.408 | 1.04 | 0.949
20 | FETSHYLASPD [CTNND2_Y1217_P1218L_YF] | 0.923 | 0.473 | 0.904 | 0.513 | 0.635 | 0.73 | 0.502 | 0.752 | 0.791 | 0.568 | 0.523 | 0.664 | 0.878 | 0.557 | 0.824 | 0.658
21 | FHNSEYGELSE [FLT4_Y1337_Y1333H] | 0.893 | 0.452 | 0.992 | 0.724 | 0.504 | 1.05 | 0.473 | 0.738 | 1.18 | 0.569 | 0.849 | 0.352 | 0.613 | 1.1 | 1.23 | 0.806
22 | FHRQLYHKCTH [F12_Y58_YF] | 1.03 | 0.916 | 0.933 | 0.425 | 0.495 | 0.623 | 0.398 | 0.442 | 0.601 | 0.387 | 0.375 | 0.385 | 0.855 | 0.371 | 0.76 | 0.502

The next lines start with results.

Row | SH2 binding enrichment (Grb2 SH2) | SH2 binding enrichment (c-Src SH2) | SH2 binding enrichment (SHP2-C SH2) | Sequence | phosphorylation enrichment (Hck) | phosphorylation enrichment (EPHB2) | phosphorylation enrichment (Jak2) | phosphorylation enrichment (Fer (mouse)) | phosphorylation enrichment (FGFR3) | phosphorylation enrichment (AncSZ) | phosphorylation enrichment (FGFR1) | phosphorylation enrichment (c-Src) | phosphorylation enrichment (MERTK) | phosphorylation enrichment (EPHB1) | phosphorylation enrichment (Fyn) | phosphorylation enrichment (Fes) | phosphorylation enrichment (c-Abl (mouse))
23 | 0.761 | 0.874 | 0.657 | ENRKYYMDLKE [PURA_Y156] | 0.543 | 0.473 | 0.734 | 0.445 | 0.573 | 0.733 | 0.474 | 0.331 | 0.466 | 0.563 | 0.418 | 0.912 | 0.588
24 | 0.738 | 0.485 | 0.543 | ESDFPYSSSFE [SRPK2_Y427_T426P_YF] | 0.47 | 0.502 | 0.942 | 0.531 | 0.692 | 1.1 | 0.619 | 0.823 | 0.462 | 0.437 | 0.511 | 1.1 | 0.642
25 | 0.67 | 0.445 | 0.775 | ETCLAYMEKRI [TEKT1_Y118_R119M] | 0.56 | 0.617 | 1.17 | 0.691 | 0.814 | 1.2 | 0.48 | 0.511 | 0.406 | 0.591 | 0.517 | 1.13 | 0.818
26 | 0.8 | 0.352 | 0.626 | EYGSGYPNDPK [RNASEH2A_Y210_D205E] | 0.593 | 0.458 | 0.672 | 0.505 | 0.474 | 0.697 | 0.433 | 0.386 | 0.425 | 0.369 | 0.446 | 0.794 | 0.574
27 | 0.814 | 0.588 | 1.1 | EYITRYIDSLK [PSMA7_Y110_A112D] | 0.558 | 0.552 | 0.677 | 0.461 | 0.572 | 0.829 | 0.528 | 0.479 | 0.395 | 0.396 | 0.504 | 0.832 | 0.498
28 | 0.854 | 0.551 | 0.624 | EYLQKYKGFKI [SYNE1_Y6953] | 0.345 | 0.332 | 0.707 | 0.407 | 0.377 | 0.733 | 0.256 | 0.323 | 0.438 | 0.427 | 0.275 | 0.868 | 0.569
29 | 0.77 | 0.443 | 0.694 | FADIAYNFRQG [PAH_Y166_H170Q_YF] | 0.505 | 0.486 | 0.701 | 0.35 | 0.601 | 0.772 | 0.398 | 0.5 | 0.41 | 0.47 | 0.425 | 0.86 | 0.665
30 | 1.11 | 10.3 | 0.674 | FCGFSYDDIPD [TMEM230_Y112_R108C_YF] | 0.63 | 0.707 | 1.22 | 0.76 | 0.918 | 1.46 | 0.592 | 0.537 | 0.558 | 0.694 | 0.481 | 1.27 | 1.02
31 | 0.668 | 0.51 | 0.471 | FDDIACIRKTL [PIK3CA_Y1021_Y1021C] | 0.448 | 0.629 | 0.787 | 0.424 | 0.756 | 0.911 | 0.497 | 0.378 | 0.386 | 0.603 | 0.374 | 1.03 | 0.661
32 | 0.768 | 0.556 | 0.759 | FDDIAYIRKNL [PIK3CA_Y1021_T1025N] | 0.5 | 0.506 | 0.494 | 0.361 | 0.56 | 0.864 | 0.432 | 0.379 | 0.416 | 0.409 | 0.403 | 0.852 | 0.483
33 | 0.895 | 0.511 | 0.751 | FGYPGYQSKHY [TIMP3_Y177] | 0.414 | 0.465 | 0.607 | 0.443 | 0.546 | 0.592 | 0.349 | 0.534 | 0.435 | 0.512 | 0.516 | 0.8 | 0.496
